Test results as given in US20160199438A1 (Eli Lilly, published 2016).
Residue numbers refer to the chain shown, from its start.

T1: human glucose-dependent insulinotropic polypeptide receptor (human, UniProt P48546 22-466)
T1 sequence (looked up): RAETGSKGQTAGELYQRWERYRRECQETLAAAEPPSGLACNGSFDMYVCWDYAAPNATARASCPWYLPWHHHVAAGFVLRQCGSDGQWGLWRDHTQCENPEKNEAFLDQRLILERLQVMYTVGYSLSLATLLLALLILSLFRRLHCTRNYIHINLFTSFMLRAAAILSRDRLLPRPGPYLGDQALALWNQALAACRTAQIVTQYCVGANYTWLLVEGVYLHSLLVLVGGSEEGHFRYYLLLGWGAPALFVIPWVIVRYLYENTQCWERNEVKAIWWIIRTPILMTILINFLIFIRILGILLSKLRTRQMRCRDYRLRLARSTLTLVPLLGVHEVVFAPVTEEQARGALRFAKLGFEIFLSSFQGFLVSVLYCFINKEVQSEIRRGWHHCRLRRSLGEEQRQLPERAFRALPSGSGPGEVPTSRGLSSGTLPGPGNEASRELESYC

T2: GIP receptor of GLUTag cells (murine (the cell line is stated to be …, UniProt Q0P543 19-460))
T2 sequence (looked up): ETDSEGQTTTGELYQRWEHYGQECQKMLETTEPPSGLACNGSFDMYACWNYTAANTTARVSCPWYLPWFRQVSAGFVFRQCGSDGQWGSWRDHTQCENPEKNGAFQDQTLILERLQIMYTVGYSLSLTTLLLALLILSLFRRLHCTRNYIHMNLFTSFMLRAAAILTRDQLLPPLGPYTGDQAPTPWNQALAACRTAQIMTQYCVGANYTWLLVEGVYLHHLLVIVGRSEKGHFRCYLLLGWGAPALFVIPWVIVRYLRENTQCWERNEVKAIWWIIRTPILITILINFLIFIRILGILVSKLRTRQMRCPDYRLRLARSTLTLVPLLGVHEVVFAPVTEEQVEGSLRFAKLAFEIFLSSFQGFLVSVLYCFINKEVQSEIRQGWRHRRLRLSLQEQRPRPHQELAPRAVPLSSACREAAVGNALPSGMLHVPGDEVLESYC

T3: human GLP-2 receptor (human, UniProt O95838 1-553)
T3 sequence (looked up): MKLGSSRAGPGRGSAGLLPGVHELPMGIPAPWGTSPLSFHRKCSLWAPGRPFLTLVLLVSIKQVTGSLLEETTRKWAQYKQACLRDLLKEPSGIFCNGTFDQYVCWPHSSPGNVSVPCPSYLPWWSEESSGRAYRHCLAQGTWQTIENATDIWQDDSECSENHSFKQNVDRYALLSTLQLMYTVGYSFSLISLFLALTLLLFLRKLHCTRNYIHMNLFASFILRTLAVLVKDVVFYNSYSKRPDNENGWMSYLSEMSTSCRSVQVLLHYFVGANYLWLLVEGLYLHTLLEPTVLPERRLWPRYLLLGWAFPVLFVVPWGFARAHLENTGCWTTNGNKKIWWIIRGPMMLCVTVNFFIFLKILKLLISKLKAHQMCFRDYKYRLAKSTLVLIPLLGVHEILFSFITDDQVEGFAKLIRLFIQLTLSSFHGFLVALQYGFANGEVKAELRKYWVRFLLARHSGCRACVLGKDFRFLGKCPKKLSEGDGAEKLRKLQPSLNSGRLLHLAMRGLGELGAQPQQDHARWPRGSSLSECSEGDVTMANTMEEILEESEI

B1: Example 3 (peptide)
peptide: YXEGTFTSDYSIXLDKIAQKAFVQWLIAGGPSSGAPPPS
modifications: Aib at positions 2 and 13; K at position 20 conjugated at the epsilon-amino group with ([2-(2-Amino-ethoxy)-ethoxy]-acetyl)2-(γGlu)1-CO-(CH2)16-CO2H; C-terminal primary amide
notes: Synthetic acylated peptide, trifluoroacetate salt
B2: Example 2 (peptide)
peptide: B1 peptide with F22X
modifications: Aib at positions 2 and 13; K at position 20 conjugated at the epsilon-amino group with ([2-(2-Amino-ethoxy)-ethoxy]-acetyl)2-(γGlu)2-CO-(CH2)18-CO2H; 1-Nal at position 22; C-terminal primary amide
notes: as for B1
B3: Example 7 (peptide)
peptide: B1 peptide with F22X
modifications: Aib at positions 2 and 13; K at position 20 conjugated at the epsilon-amino group with ([2-(2-Amino-ethoxy)-ethoxy]-acetyl)2-(γGlu)2-CO-(CH2)16-CO2H; 1-Nal at position 22; C-terminal primary amide
notes: as for B1
B4: Example 8 (peptide)
peptide: B1 peptide with F22X
modifications: Aib at positions 2 and 13; K at position 20 conjugated at the epsilon-amino group with ([2-(2-Amino-ethoxy)-ethoxy]-acetyl)2-(γGlu)1-CO-(CH2)18-CO2H; 1-Nal at position 22; C-terminal primary amide
notes: as for B1
B5: Example 6 (peptide)
peptide: B1 peptide with F22X
modifications: Aib at positions 2 and 13; K at position 20 conjugated at the epsilon-amino group with ([2-(2-Amino-ethoxy)-ethoxy]-acetyl)2-(γGlu)1-CO-(CH2)16-CO2H; 1-Nal at position 22; C-terminal primary amide
notes: as for B1
B6: Example 5 (peptide)
peptide: B1 peptide
modifications: Aib at positions 2 and 13; K at position 20 conjugated at the epsilon-amino group with ([2-(2-Amino-ethoxy)-ethoxy]-acetyl)2-(γGlu)2-CO-(CH2)18-CO2H; C-terminal primary amide
notes: as for B1
B7: Example 1 (peptide)
peptide: B1 peptide
modifications: Aib at positions 2 and 13; K at position 20 conjugated at the epsilon-amino group with ([2-(2-Amino-ethoxy)-ethoxy]-acetyl)2-(γGlu)1-CO-(CH2)18-CO2H; C-terminal primary amide
B8: Example 4 (peptide)
peptide: B1 peptide
modifications: Aib at positions 2 and 13; K at position 20 conjugated at the epsilon-amino group with ([2-(2-Amino-ethoxy)-ethoxy]-acetyl)2-(γGlu)2-CO-(CH2)16-CO2H; C-terminal primary amide
notes: as for B1

Biological target: human glucose-dependent insulinotropic polypeptide receptor (human) (UniProt P48546)
Test: cell-based or functional assay

Molecule	Emax, % (intracellular cAMP) [%]
human GIP(1-42)NH2 (from UniProt P09681 52-93) (ligand)	100

Biological target: T1, human glucose-dependent insulinotropic …
Test: cell-based or functional assay

Molecule	EC50 (intracellular cAMP) [µM]	Emax, % (intracellular cAMP) [%]
B1	0.00315	106
B2	0.0175	94.7
B3	0.00807	106
B4	0.0211	108
B5	0.0044	106
B6	0.00876	105
B7		97.9
B8	0.00376	

Biological target: T4, human glucagon-like peptide 1 receptor (human, UniProt P43220 24-463)
Test: cell-based or functional assay

Molecule	EC50 (intracellular cAMP) [µM]	Emax, % (intracellular cAMP) [%]
B1	0.0339	96.2
B2	0.0757	98.2
B3	0.0355	97.2
B4	0.0579	88.4
B5	0.0284	104
B6		105
B7		85.2
B8		100

Biological target: human glucagon receptor (human, UniProt P47871 26-477)
Test: cell-based or functional assay

Sequence of human glucagon receptor (P47871 26-477): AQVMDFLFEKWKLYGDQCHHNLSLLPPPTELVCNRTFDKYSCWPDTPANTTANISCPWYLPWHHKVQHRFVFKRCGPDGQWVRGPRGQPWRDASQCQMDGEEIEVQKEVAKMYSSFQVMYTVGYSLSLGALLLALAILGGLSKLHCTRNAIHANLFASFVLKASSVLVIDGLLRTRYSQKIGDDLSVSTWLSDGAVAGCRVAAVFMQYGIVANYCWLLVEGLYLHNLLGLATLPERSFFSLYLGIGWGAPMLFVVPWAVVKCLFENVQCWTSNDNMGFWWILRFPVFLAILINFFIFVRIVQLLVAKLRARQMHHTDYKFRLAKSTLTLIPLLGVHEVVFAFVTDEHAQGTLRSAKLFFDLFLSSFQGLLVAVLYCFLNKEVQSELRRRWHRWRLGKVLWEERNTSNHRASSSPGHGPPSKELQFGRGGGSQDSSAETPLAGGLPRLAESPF

Molecule	EC50 (intracellular cAMP) [µM]
B2	> 1
B3	> 1
B4	> 1
B5	> 1

Biological target: T2, GIP receptor of GLUTag cells
Test: cell-based or functional assay

Molecule	Average EC50, cAMP in GLUTag cells [µM]
B1	1.61
B2	2.92
B3	2.75
B7	1.49
B8	2.19

Biological target: T3, human GLP-2 receptor
Test: cell-based or functional assay

Molecule	Rel EC50 (intracellular cAMP) [µM]
C18-acylated human GLP-2 control (from UniProt P01275 146-178) (peptide)	0.00186
B1	0.199
B2	1.61
B3	1.8
B8	0.405

Biological target: T1, human glucose-dependent insulinotropic …
Test: competition of [125I]GIP, SPA, hGIP-R CHO-S membranes; Ki by Cheng-Prusoff
Protocol: The compounds are serially diluted into binding buffer. Next, 10 μL diluted compound or 100% DMSO is transferred into Corning® 3632 clear bottom assay plates containing 40 μL assay binding buffer or cold GIP (NSB at 0.1 μM final). Then, 90 μL membranes (3 μg/well), 50 μL [|¹²⁵|] GIP (Perkin Elmer Life and Analytical Sciences at 0.15 nM final in reaction), and 50 μL of WGA beads (150 μg/well) is added, sealed, and mixed on a plate shaker for 1 minute. Plates are read with a MicroBeta® scintillation counter after 12 hours of settling time at room temperature.
(§1) The IC₅₀ concentration is converted to Ki using the Cheng-Prusoff equation.

Molecule	Ki [µM]
B1	0.0267
B2	0.0639
B3	0.0461
B4	0.0675
B5	0.0442
B6	0.0178
B8	0.0407

Biological target: T4, human glucagon-like peptide 1 receptor
Test: ratio of Ki on hGLP-1R to Ki on hGIP-R (reference), radioligand competition

Molecule	Absolute ratio of hGLP-1R/hGIP-R
B2	5.4
B3	7.6
B4	4.5
B5	8.3

Biological target: T4, human glucagon-like peptide 1 receptor
Test: competition of I-125 GLP-1, SPA, hGLP-1R 293HEK membranes; Ki by Cheng-Prusoff
Protocol: The hGLP-1R cDNA is subcloned into the expression plasmid phD (Trans-activated expression of fully gamma-carboxylated recombinant human protein C, an antithrombotic factor. Grinnell, B. W., Berg, D. T., Walls, J. and Yan, S. B. Bio/Technology 5: 1189-1192, 1987). This plasmid DNA is transfected into 293HEK cells and selected with 200 μg/mL Hygromycin.
The binding buffer contains 25 mM HEPES, pH 7.4, 2.5 mM CaCl₂, 1 mM MgCl₂, 0.1% fatty acid free BSA, 0.003% Tween20, and Roche Complete™ Inhibitors without EDTA. […] The peptide analog is dissolved in 100% DMSO and serially diluted in 100% DMSO. Next, 10 μL diluted compounds of the present invention or 100% DMSO are transferred into Corning® 3632 clear bottom assay plates containing 40 μL assay binding buffer or cold glucagon (NSB at 1 μM final). […] Plates are read with a PerkinElmer Life and Analytical Sciences Trilux MicroBeta® scintillation counter after 12 hours of settling time at room temperature.
as §1

Molecule	Ki [µM]
B1	0.427
B2	0.344
B3	0.352
B4	0.307
B5	0.365
B6	0.158
B8	0.714

Biological target: T4, human glucagon-like peptide 1 receptor
Test: Ki ratio hGLP-1R/hGIP-R normalized by 4.53 (native GLP-1/GIP), radioligand competition

Molecule	Molar ratio of hGLP-1R/hGIP-R
B2	1.19
B3	1.68
B4	0.99
B5	1.83
